# B1: Tamavidin 1: biotin-binding protein (SEQ ID NO: 2) purified from the edible mushroom Pleurotus cornucopiae var. citrinopileatus; recombinant from E. coli (protein, listed as Pleurotus cornucopiae)
# chain: MKDVQSLLTGTWYNELGSTMNLTANKDGSLTGTYHSNVGEVPPTYHLSGRYNLQPPSGQGVTLGWAVSFENTSANVHSVSTWSGQYFSEPAEVILTQWLLSRSSEREDLWQSTHVGHDEFSKTKPTKEKIAQAQLLRRGLKFE
# B2: Tamavidin 2: biotin-binding protein (SEQ ID NO: 4) from Pleurotus cornucopiae var. citrinopileatus, recombinant from E. coli, tetramer (protein, listed as Pleurotus cornucopiae)
# chain: MSDVQSSLTGTWYNELNSKMELTANKDGTLTGKYLSKVGDVYVPYPLSGRYNLQPPAGQGVALGWAVSWENSKIHSATTWSGQFFSESSPVILTQWLLSSSTARGDVWESTLVGNDSFTKTAPTEQQIAHAQLHCRAPRLK
# modifications: tetramer
# Columns and labels:
# [1] = Heat resistance: protein stability (heating, SDS-PAGE band quantification); assay type: physicochemical; details: for tetramer dissociation upon addition of biotin: biotin added, after treatment at 95° C.; for heat resistance higher than that of streptavidin: difference of 50% band-intensity temperatures; for temperature which caused a 50% reduction in protein band intensity: heated 20 minutes, soluble protein, SDS-PAGE, no biotin; for heat resistance higher than in streptavidin (summary statement): summary in disclosure
# Description: (§1) 0.2 μg/μL TM2 and 0.2 μg/μL streptavidin were heated in 10 μL (2 μg) volumes at room temperature, 50° C., 60° C., 70° C., 80° C., 90° C. or 99° C. for 20 minutes, followed by centrifugation at 15000 rpm for 10 minutes. Each supernatant (soluble protein) was suspended in an equal volume of 2×SDS sample buffer (100 mM Tris-HCl pH 6.8, 12% 2-mercaptoethanol, 2% SDS, 20% glycerol), heated at 95° C. for 10 minutes and then analyzed by SDS-PAGE. Protein bands were detected by CBB staining. Using a Las-3000 system (FUJIFILM), a calibration curve was prepared based on quantification markers (LMW ELECTROPHORESIS CALIBRATION KIT; Pharmacia Biotech) and used to quantify the protein bands. The temperature which caused a 50% reduction in protein band intensity was 71° C. for streptavidin, whereas it was 87° C. for tamavidin 2.
# as §1, with “Purified tamavidin 1 at a concentration of 0.2” for “0.2”, “was” for “TM2 and 0.2 μg/μL streptavidin were”, “As a result, the” for “The”, “76°” for “71° C. for streptavidin, whereas it was 87°”, “1.” for “2.”
# [2] = Fluorescent biotin-binding activity of tamavidin 1 after heat treatment at 70° C.; details: supernatant treated at 70° C. for 10 minutes, incubation at room temperature
# Description: Fluorescent biotin-binding activity was measured for tamavidin 1 in the above centrifuged supernatant after heat treatment at 70° C. The same procedure as used for tamavidin 2 was repeated for this purpose. Incubation with fluorescent biotin was performed at room temperature.
# [3] = Activity measurement by means of fluorescent biotin (method of Kada et al.); assay type: binding; details: room temperature
# Description: By means of fluorescent biotin, tamavidin 2 was measured for its biotin-binding activity according to the method of Kada et al. (Biochim. Biophys. Acta., 1427: 44-48, (1999)). Solutions were prepared to contain the purified TM2 at stepwise concentrations from 0 pmol to 486 pmol in 200 μl assay buffer (50 mM NaH2PO4, 100 mM NaCl, 1 mM EDTA (pH 7.5)). These solutions were each mixed with 50 μL (1 nmol) of a 20 pmol/μL fluorescent biotin solution (biotin-4-fluorescein; Molecular Probe) and allowed to stand at room temperature for 10 minutes, followed by measuring the fluorescence intensity with a Las-3000 system (FUJIFILM). As a result, 0.274 nmol of TM2 was bound to nmol of fluorescent biotin. Namely, 3.6 mol of fluorescent biotin was bound to 1 mol of tamavidin. […] In the case of streptavidin, 3.4 mol of fluorescent biotin was bound per mol of streptavidin.
# [4] = Heat resistance: fluorescent biotin-binding activity of heated biotin-binding proteins
# Description: Based on the property of fluorescent biotin to lose its fluorescence intensity when bound to a biotin-binding site in a biotin-binding protein, tamavidin 2 was compared with streptavidin and avidin for biotin-binding capacity under high temperature conditions.
# About 0.25 μg/μL TM2 and streptavidin were heated at room temperature, 50° C., 60° C., 70° C., 80° C. or 90° C. for 20 minutes. Solutions were prepared to contain the heat-treated TM2 or streptavidin at stepwise concentrations from 0 μL to 27 μL in 150 μL assay buffer (50 mM NaH2PO4, 100 mM NaCl, 1 mM EDTA (pH 7.5)). These solutions were each mixed with 50 μL (250 pmol) of a 5 pmol/μL fluorescent biotin solution (biotin-4-fluorescein; Molecular Probe) and allowed to stand at room temperature for 20 minutes, followed by measuring the fluorescence intensity with a Las-3000 system (FUJIFILM).
# Heat resistance test on the biotin-binding proteins was accomplished as follows. About 0.25 μg/μL biotin-binding protein was heated at room temperature, 50° C., 60° C., 70° C., 80° C. or 90° C. for 20 minutes. Solutions were prepared to contain the heated biotin-binding protein at stepwise concentrations from 0 μL to 12 μL in 150 μL assay buffer. These solutions were each mixed with 50 μL (100 pmol) of a 2 pmol/μL fluorescent biotin solution and allowed to stand at room temperature for 20 minutes, followed by measuring the fluorescence intensity at Ex=460 nm and Em=525 nm with an Infinite M200 (TECAN).
# [5] = Kinetic analysis of tamavidin 2-biotin interaction using a Biacore 3000 biosensor (surface plasmon resonance); assay type: binding; details: Biacore 3000, 25° C.
# Description: Kinetic Analysis of Tamavidin 2 (TM2)-Biotin Interaction Using a Biacore Biosensor
# Highly-purified BSA (2 mg, Sigma) and NHS-biotin (1 mg, Pierce) were dissolved in 1 ml of 50 mM sodium borate pH 8.0 and incubated at 4° C. for 2 hours. The NHS-biotin (EZ-Link NHS-LC-LC-Biotin) had been dissolved in a small volume of DMSO before addition. This solution was introduced into a dialysis tube (MWCO 6-8,000) and dialyzed overnight at 4° C. against 50 mM sodium carbonate pH 6.7. The biotin-BSA conjugate thus prepared (MW 67 kDa, 30 μM) was used as a ligand (a substance immobilized on a sensor chip) for a Biacore® biosensor. On the other hand, recombinant tamavidin 2 was prepared as an analyte (a substance flowing through channels) and analyzed for intermolecular interactions using a Biacore® 3000 (a biosensor designed on the principle of surface plasmon resonance, Biacore Inc.). Biotin-BSA and BSA alone (serving as a negative control) were each immobilized on CM5 sensor chips by amine coupling techniques. Their immobilized amount was adjusted to around 200 RU. BSA-immobilized chips were placed in flow cells 1 and 3, while biotin-BSA-immobilized chips were placed in flow cells 2 and 4. Tamavidin 2 was loaded into flow cells 1 and 2, while streptavidin was loaded into flow cells 3 and 4, each being loaded at a flow rate of 20 μl/min for 2 minutes in running buffer [10 mM HEPES pH 7.4, 150 mM NaCl, 3 mM EDTA, 0.005% Surfactant 20 (Biacore Inc.)]. The samples were then monitored for their dissociation over 60 minutes. […] The dissociation constant (Kd) was determined from kd/ka.
# It should be noted that when the regeneration step was skipped, Rmax (the maximum binding amount of an analyte) was reduced ever time the measurement at each concentration was made. For this reason, Rmax was calculated by local fitting for each concentration during analysis. […]
# salmon sperm DNA = experiment: Test for non-specific binding to DNA (slot blot, antibody detection); details: 25 μg/mL protein, salmon sperm DNA 10 μg to 0.3 μg on membrane
# Description: TM2 was analyzed for its non-specific binding to DNA. Serial dilutions of salmon sperm DNA (10 μg to 0.3 μg) in 2×SSC buffer were alkali-denatured and adsorbed onto a Hybond N+ membrane (Amersham Biosciences) using Bio-Dot SF (BIO-RAD). The membrane was blocked with 5×Denhardt's solution (0.1% BSA, 0.1% Ficoll, 0, 1% polyvinylpyrrolidone) and then immersed in a 25 μg/mL TM2, streptavidin or avidin solution at room temperature for 90 minutes. The membrane was then washed three times with TTBS buffer (TBS buffer containing 0.05% Tween 20) at room temperature for 5 minutes. The membrane was blocked with TBS buffer containing 0.5% skimmed milk and 0.01% Tween 20 for 1 hour. The primary antibodies used were rabbit anti-TM2 antibody (purified as described above) for TM2, rabbit anti-streptavidin antibody (SIGMA) for streptavidin, and rabbit anti-avidin antibody (Abcam) for avidin, which were diluted to give the same antibody titer before use. Antigen-antibody reaction with each primary antibody was performed overnight at room temperature. […] The membrane was washed three times with TTBS buffer at room temperature for 5 minutes, and then developed with an Alkaline Phosphatase substrate kit II, vector Black (Funakoshi Co., Ltd., Japan), followed by quantification with a Las-3000 system (FUJIFILM).
# [6] = 1:1 binding model, biotin-BSA ligand
Molecule,tetramer dissociation upon addition of biotin [1],heat resistance higher than that of streptavidin [1] [°C],temperature which caused a 50% reduction in protein band intensity [1] [°C],heat resistance higher than in streptavidin (summary statement) [1] [°C],binding to fluorescent biotin after heat treatment [2],amount of TM2 bound to nmol of fluorescent biotin ([3]; 1 nmol fluorescent biotin added) [nmol],fluorescent biotin bound per mol of protein ([3]; 10 minutes) [mol],"temperature which caused a 50% reduction in fluorescence intensity decrement compared to the unheated sample ([4]; free protein, heated 20 minutes) [°C]","change in binding to fluorescent biotin compared to the room temperature value ([4]; heated at 70° C. or below, 20 minutes)","retained fluorescent biotin-binding activity ([4]; heated at 80° C., 20 minutes) [%]","Association rate constant ks [5, 6] [M⁻¹ s⁻¹]","Dissociation rate constant kd [5, 6] [s⁻¹]","Kd ([5]; determined from kd/ka, read-out: Dissociation constant Kd) [pM]",non-specific binding to DNA (staining intensity versus DNA concentration) (salmon sperm DNA)
B1,tetramer dissociation was not observed,5,76,5,found to bind to fluorescent biotin,–,–,–,–,–,–,–,–,–
B2,tetramer dissociation was not observed,≥ 15,87,≥ 10,–,0.274,3.6,85,no change,82,919000,6.83e-06,7.43,not strongly affected by DNA concentration

# — patent US8957190B2, “Use of heat-resistant biotin-binding protein, and solid support having the protein attached thereto” (Japan Tobacco Inc., priority 2006, dated 2015)
